Test results reported in patent publication US20240218057A1 (ROCKEFELLER UNIVERSITY, published 2024).
Numbering of substitutions follows the chain as printed.

B1: C840 (antibody, V domains shown)
VH: QVQLVESGGGVVQPGRSLRLSCEASGFTFTAYAMHWLRQAPGKGLEWVAVILNDGSNKLYADSVKGRFTVSRDNSKNMLYLQVNSLRVDDTAVYYCARDGSVDTLMVTWFDYWGQGTLVTVSS
VL: DIQMTQSPSSLSASVGDRVTITCRASQSVNNYLNWYQQKPGQAPKLLIYAASSLQSGVPLRFSGSGSGTDFALTITSLHTEDFATYYCQQSYNTPPWTFGPGTKVEIK
B2: C841 (antibody, V domains shown)
VH: EVQLVESGGGLVQPGGSLRLSCAASGFTFSIFSMNWVRQAPGKGLEWISYISSSSGSRHYADSVKGRFTISRDNAKNSLYLQMNNLRDEDTAMYYCAREAHDGALTGYGDYLNWFDPWGQGVLVTVSS
VL: SYELTQPPSVSVAPGKTARIPCGGDSVGSKSVHWYQQKSGQAPVLVIHSDSDRPSGIPERFSGSNSGNTATLTITGVAAGDEADYYCHVWDTIGDRFYWVFGGGTKLTVL
B3: C1010 (antibody, V domains shown)
VH: QVQLVESGGGVVQPGRSLRLSCAASGFTFSSYAMHWVRQAPGKGLEWVAVISYDGSNKYYADSVKGRFTISRDNSKNTLYLQMNSLRAEDTAVYYCAKKGQPYCGGDCYFYYFDYWGQGTLVTVSS
VL: DIQMTQSPSSLSASLGDRVTITCQASQDISNYLNWYQQKPGKAPKLLIYDASNLETGVPSRFSGSGSGTDFTFTISSLQPEDIATYYCQQYDNLPPITFGQGTRLEIK
B4: C1011 (antibody, V domains shown)
VH: QVQLVESGGGVVQPGRSLRLSCAVSGFTFSHYAMHWVRQAPGKGLEWVAVISYDGADKYYADSVRGRFTIARDNSKNTLFLQMSSLRPEDTAVYYCAKKGQPYCGGDCHFYYLDYWGQGTLVTVSS
VL: B3 VL with L15V, Y32H, P80A
B5: C916 (antibody, V domains shown)
VH: EVQLVESGGGLVQPGGSLRLSCAASGFTFSNYDMHWVRQATGRGLEWVSTIGTAGDTYYPGSVKGRFTISRENAKNSLYLQMNSLRAGDTALYYCARVRYDSSGYFWSLDYWGQGTLVTVSS
VL: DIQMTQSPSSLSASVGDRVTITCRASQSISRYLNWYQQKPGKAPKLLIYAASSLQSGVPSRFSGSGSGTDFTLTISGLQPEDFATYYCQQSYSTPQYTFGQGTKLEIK
B6: C917 (antibody, V domains shown)
VH: B5 VH with R43K, E46D, L92V, Y100F, S102T
VL: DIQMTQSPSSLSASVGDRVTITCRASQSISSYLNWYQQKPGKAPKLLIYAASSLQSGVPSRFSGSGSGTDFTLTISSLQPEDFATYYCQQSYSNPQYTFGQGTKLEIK
B7: C936 (antibody, V domains shown)
VH: EVQLVESGGGLIQPGGSLRLSCAASGFTVSSNYMSWVRQAPGKGLEWVSVIYSGGSTFYADSVKGRFTISRDNSKNTLYLQMNSLRAEDTAVYYCARDLGTGLFDYWGQGTLVTVSS
VL: DIQLTQSPSFLSASVGDRVTITCRASQGISSYLAWYQQKPGKAPKLLIYAASTLQSGVPSRFSGSGSGTEFTLTISSLQPEDFATYYCQQLDSYPPGTFGPGTKVDIK
B8: C937 (antibody, V domains shown)
VH: B7 VH with G26E, F27L, S53P
VL: B7 VL with Y87F, Q90L, D92N, Y94N
B9: C1002 (antibody, V domains shown)
VH: EVQLVESGGGLVQPGGSLRLSCAASEFIVSSNYMTWVRQAPGKGLEWVSIMYPGGSTFYADSVKGRFTISRDNSKNTLYLQINRLRAEDTAVYYCARDIAGRLDYWGQGTLVTVSS
VL: B3 VL with L15V, S30N, T72S, P95S, P96R, I97L, Q101G, R104K, L105V
B10: C934 (antibody, V domains shown)
VH: QVQLVQSGAEVKKPGASVKVSCKASGYTFTDYYIHWVRQAPGQGLEWMGWINPNSGGTNYAQKFQGRVTMTRDTSISTAYMDLSRLRSDDTAVYYCARDVIITMGRGVVFRMDVWGQGTTVTVSS
VL: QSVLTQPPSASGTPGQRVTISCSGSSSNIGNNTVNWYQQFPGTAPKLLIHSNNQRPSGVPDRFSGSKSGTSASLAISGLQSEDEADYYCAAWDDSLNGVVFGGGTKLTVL
B11: C1003 (antibody, V domains shown)
VH: QVQLVESGGGVVQPGRSLRLSCAASGFAFSSYGMNWVRQAPGKGLEWVTTVSSDGNVNYYIDSVKGRFTISRDNSKNTLYLQMNSLRGDDTAVYYCAKGPRFGWSYRGGSGFDIWGQGTMVTVSS
VL: DIQMTQSPSSLSASVGDRVTITCQASQDISNYLNWYQQKPGKAPKLLIYDASNLETGVPSRFSGSGSGTDFTFTITSLQPEDIATYYCQQYDNLPITFGQGTRLEIK
B12: C871 (antibody, V domains shown)
VH: EVQLVESGGGLIQTGGSLKLSCAASGFIVTNNYMSWVRQAPGKGLEWVSVIYSGGTTYYADSVKGRFTISRDISKNTLYLQMNSLKAEDTAVYYCAREGDVEGISDSWSGYSRDRYYFDHWGQGTLVTVSS
VL: QSALTQPASVSGSPGQSITISCTGTSSDVGGYNYVSWYQQHPGKAPKLMIYDVSNRPPTISNRFSGSKSGNTASLIISGLQPEDEADYYCSSFTSNNTRVFGTGTKVTVL
B13: C929 (antibody, V domains shown)
VH: B7 VH with S35T, S56T, F58Y, G100V, T101V, G102W, L103G, F104M, Y106V, L112T
VL: DIQLTQSPSFLSASVGDRVTITCRASQGISSYLAWYQQKPGKAPKLLIYAASTLQSGVPSRFSGSGSGTEFTLTISSLQPEDFATYYCQLLNSYPYTFGQGTKLEIK
B14: C930 (antibody, V domains shown)
VH: EVQLVESGGGLFQPGGSLRLACAASGITVSSNYMSWVRQPPGKGLEWVSVIYAGGSTFYADSVKGRLTISRDNSKNTLYLQINSLRAEDTAVYYCARDLVVWGMDVWGQGTTVTVSS
VL: B13 VL with L90Q, S93T
B15: C888 (antibody, V domains shown)
VH: EVQLVESGGGLVQPGGSLRLSCAASGFTVSSNYMSWVRQAPGKGLEWVSVIYSGGSAYYADSVKGRFTISRDNSKNTLYLQMNSLRAEDTAVYYCARDLRDQDGYSYGAFDYWGQGTLVTVSS
VL: QSALTQPASVSGSPGQSITISCTGTSSDVGGYNYVSWYQQHPGKAPKLMIYDVSNRPSGVSNRFSGSKSGNTASLTISGLQAEDEADYYCSSYTSSSSWVFGGGTKLTVL
B16: C889 (antibody, V domains shown)
VH: EVQLVESGGGLVQPGGSLRLSCAVSGFTVSSNYMTWVRQAPGKGLEWVSLIYSGTSAFYADSVKGRFTISRDNSKNTLYLQMSSLRVNDTAIYYCARDLRKDDGYSYGAFDYWGQGTLVTVSS
VL: QSALTQPASVSGSPGQSITISCSGTSSDVGAHNYVSWYQQYPGKAPKLMIFDVTDRPSGVSNRFSGSKSGNTASLTISGLQAEDEADYYCTSYTTNRSWVFGGGTKVTVL
B17: C881 (antibody, V domains shown)
VH: EVQLVESGGGLIQPGGSLRLSCAVSGVAVSTNYMSWVRQAPGQGLEWVSTIYSGDTTYYSDSVKGRFTISRDNSKNTFYLQMNSLRVPDTAVYYCARLGGVFNGFNGSFDYWGQGTLVTVS
VL: QSALTQPASVSGSPGQSITISCIGTSSDFENYNLVSWYQQHPGKAPKVMIYEDTKRPSGVSNRFSGSKSANTASLTISGLQAEDEAEYYCCSYAGASTWVFGGGTRVTVV
B18: C952 (antibody, V domains shown)
VH: EVQLVQSGAEVKKPGESLTISCKDSGNSFTIYWIGWVRQMPGKGLEWMGMIYPGDSGTRYSPSFEGQVTISADESINTAYLQWRSLKASDTAMYYCVRGIAVDWYFDLWGRGTLVTVSS
VL: QSVLTQPPSVSGAPGQRVTISCTGSSSNIGAGFDVHWYQQLPGTAPKLLIYGNNNRPSGVPDRFSGSKSATSASLAITGLQAEDEADYYCQSSDSSLSGLYVFGTGTNVIV

Each binder was assayed against T1, SARS-CoV-2 receptor-binding domain (WT RBD; S protein residues 319-539) (SARS-CoV-2, UniProt P0DTC2 319-539) (assay: BLI (Octet Red), IgG on protein A biosensor, WT RBD in solution, 1:1 fit).
T1 construct: also called SARS-COV-2 RBD
B1 gave a Kd of 5.56 nM. B2 gave a Kd of 1.64 nM. Binder B3 has a Kd of 62.5 nM. In the case of B4, the Kd is reported as 0.0833 nM. B5 was tested, and the Kd was 3.45 nM. Binder B6 has a Kd of 0.101 nM. B7 showed a Kd of 667 nM. B8 was tested, and the Kd was 3.03 nM. Work on B9 yielded a Kd of 0.00196 nM. Work on B10 yielded a Kd of 100 nM. Work on B11 yielded a Kd of 90.9 nM. B12 gave a Kd of 3.7 nM. Work on B13 yielded a Kd of 0.127 nM. B14 was tested, and the Kd was 0.323 nM. In the case of B15, the Kd is reported as 1390 nM. With B16 the Kd was 4.17 nM. For B17, the Kd was 5.26 nM. B18 was tested, and the Kd was 0.172 nM.
